Reference: the supplement of paper PMC11136658

System: peptide library, one residue held at a place counted from the Y acceptor
Assay: relative phosphorylation of the sub-library (ratio to the mean residue at this position); higher = residue favoured
How it was run: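 Every value reflects phosphorylation relative to the mean randomized residue. The sum of the 18 randomized residues, or 16 in the Ser/Thr-free library, served to normalize intensities at each position, which were then multiplied by that number. Intensities came from phosphorimaging with ImageQuant of biotinylated Tyr-centred peptides captured on streptavidin membranes after 90 min with purified recombinant kinases and 50 μM ATP plus γ-32P-ATP.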

Chain of MKK7, construct: Full length, human (O14733 whole entry, looked up): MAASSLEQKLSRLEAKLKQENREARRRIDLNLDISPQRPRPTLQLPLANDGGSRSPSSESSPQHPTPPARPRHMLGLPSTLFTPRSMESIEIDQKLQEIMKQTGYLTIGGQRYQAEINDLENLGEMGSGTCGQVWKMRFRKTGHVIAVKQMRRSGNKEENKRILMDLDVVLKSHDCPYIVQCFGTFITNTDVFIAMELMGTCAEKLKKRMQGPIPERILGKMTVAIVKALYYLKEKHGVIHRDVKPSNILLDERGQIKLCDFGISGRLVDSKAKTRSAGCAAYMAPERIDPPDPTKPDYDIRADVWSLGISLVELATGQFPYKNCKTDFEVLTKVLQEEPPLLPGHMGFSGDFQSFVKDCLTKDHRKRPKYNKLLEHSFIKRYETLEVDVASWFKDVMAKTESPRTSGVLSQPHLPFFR

MKK6, construct: Full length, human (from UniProt P52564)
relative phosphorylation
Settings | at +1 | at +2 | at +3 | at +4 | at +5 | at -1 | at -2 | at -3 | at -4 | at -5
A fixed | 0.98 | 0.864 | 0.898 | 0.991 | 0.809 | 1.01 | 0.924 | 1.01 | 1.08 | 1.07
D fixed | 1.16 | 1.47 | 1.16 | 1.39 | 1.26 | 1.56 | 1.38 | 1.17 | 1.2 | 1.25
E fixed | 1.18 | 1.32 | 1.29 | 1.24 | 1.3 | 1.41 | 1.31 | 1.03 | 1.18 | 1.22
F fixed | 0.736 | 1.04 | 1.08 | 1.11 | 1.06 | 0.746 | 0.926 | 1.05 | 0.926 | 1.03
G fixed | 1.45 | 0.959 | 0.966 | 1.04 | 1.06 | 1.31 | 0.972 | 0.972 | 1.21 | 1.04
H fixed | 0.977 | 1.01 | 0.93 | 1.02 | 0.997 | 1.08 | 1.08 | 1.01 | 1.04 | 1.1
I fixed | 0.66 | 0.709 | 0.711 | 0.742 | 0.819 | 0.643 | 0.668 | 0.746 | 0.718 | 0.798
K fixed | 0.807 | 0.912 | 0.926 | 0.872 | 0.845 | 0.724 | 0.915 | 1.02 | 0.841 | 0.922
L fixed | 0.816 | 0.825 | 0.76 | 0.83 | 0.896 | 0.814 | 0.819 | 0.859 | 0.904 | 0.791
M fixed | 0.975 | 0.862 | 0.925 | 0.897 | 0.928 | 0.891 | 0.891 | 0.855 | 0.886 | 0.796
N fixed | 1.11 | 0.973 | 1 | 0.958 | 1.03 | 1.09 | 1.19 | 1.12 | 0.966 | 1.16
P fixed | 1.18 | 1.03 | 1.12 | 1.2 | 1.05 | 1.03 | 0.989 | 0.851 | 1.09 | 1.03
Q fixed | 1.02 | 0.887 | 0.978 | 0.934 | 1.08 | 1.11 | 1.01 | 1.25 | 1.07 | 1.01
R fixed | 1.05 | 0.781 | 0.921 | 0.867 | 0.93 | 0.76 | 0.866 | 1.19 | 0.955 | 0.928
V fixed | 0.738 | 0.797 | 0.832 | 0.736 | 0.792 | 0.569 | 0.691 | 0.746 | 0.817 | 0.778
W fixed | 1.15 | 1.55 | 1.52 | 1.17 | 1.14 | 1.25 | 1.36 | 1.12 | 1.12 | 1.08
pThr fixed | 1.51 | 1.74 | 1.23 | 1.52 | 1.24 | 1.39 | 1.11 | 1.57 | 1.29 | 1.34
pTyr fixed | 1.13 | 1.18 | 1.3 | 1.36 | 1.41 | 1.85 | 1.21 | 1.33 | 1.1 | 1.26

MKK7, construct: Full length, human (from UniProt O14733)
relative phosphorylation
Settings | at +1 | at +2 | at +3 | at +4 | at +5 | at -1 | at -2 | at -3 | at -4 | at -5
A fixed | 0.866 | 0.844 | 0.903 | 0.959 | 0.929 | 1.02 | 0.884 | 0.883 | 1.05 | 0.989
D fixed | 0.796 | 1.11 | 1.02 | 1.07 | 0.952 | 0.915 | 0.883 | 0.947 | 0.993 | 1.02
E fixed | 0.856 | 0.895 | 1.27 | 0.992 | 1.05 | 0.914 | 0.91 | 0.926 | 0.996 | 0.917
F fixed | 1.11 | 1.39 | 1.21 | 1.13 | 1.14 | 0.857 | 1.28 | 1.1 | 1.08 | 1.14
G fixed | 0.926 | 0.779 | 0.915 | 0.979 | 1.11 | 1.38 | 1.24 | 1.25 | 1.19 | 1.04
H fixed | 1 | 1.09 | 1.02 | 1.02 | 1.02 | 0.958 | 1.06 | 1.05 | 0.968 | 1.09
I fixed | 0.983 | 0.753 | 0.89 | 0.93 | 0.8 | 0.896 | 0.764 | 0.807 | 0.882 | 0.87
K fixed | 0.896 | 1.09 | 0.896 | 0.989 | 1.08 | 1.04 | 1.17 | 1.14 | 1.06 | 1.16
L fixed | 1.04 | 0.851 | 0.841 | 1.13 | 0.891 | 1.04 | 0.821 | 0.912 | 0.894 | 0.913
M fixed | 1.38 | 0.857 | 1.05 | 1.03 | 0.977 | 0.926 | 0.855 | 0.828 | 0.881 | 0.89
N fixed | 0.919 | 0.946 | 0.973 | 0.894 | 0.984 | 0.947 | 1.04 | 0.98 | 0.89 | 0.959
P fixed | 0.955 | 0.819 | 0.941 | 1.09 | 1.04 | 1.07 | 1.04 | 1.06 | 1.11 | 0.99
Q fixed | 0.873 | 0.929 | 1.09 | 0.881 | 0.991 | 0.951 | 0.891 | 1.07 | 0.974 | 0.952
R fixed | 1 | 1.09 | 1.01 | 0.97 | 1.13 | 1.12 | 1.29 | 1.24 | 1.13 | 1.16
V fixed | 0.918 | 0.844 | 0.822 | 0.828 | 0.73 | 0.85 | 0.803 | 0.794 | 0.844 | 0.802
W fixed | 1.49 | 1.72 | 1.14 | 1.11 | 1.18 | 1.12 | 1.07 | 1.01 | 1.06 | 1.1
pThr fixed | 0.894 | 1.05 | 0.876 | 1.08 | 1.01 | 1.09 | 0.859 | 1.08 | 1.05 | 1.11
pTyr fixed | 0.963 | 1.06 | 1.03 | 1.01 | 1.09 | 1.57 | 1.11 | 1.82 | 1.05 | 1.11
